{
  "source": "the DeepSol protein solubility set",
  "test": "soluble on expression in E. coli; label from the status in PepcDB or PDB records",
  "data": [
    {"sequence": "MGSDKIHHHHHHMNYPTTRLNWPRAWRVIPSRFPAVGLFERVASPDDFDALYALEAMTNDRLRDEVGDISLVPPEERLFGPGSTCIMAAFTHLNPQGSRFSDGSYGVFYCARKRDTAIAETRYHSARFMQATREPPMRLQMRLYSVQARGEAADLRVASKSDPRIVAPDDYSYPQAIGRSLRAAGALGIVYPSVRHSGGGCLAALRTGIVKNCLHAAYLEYNWNGEGIDAVFEVNRVL", "values": [
      {"measurement": "soluble on expression in E. coli", "result": "not soluble"}
    ]},
    {"sequence": "MKFDDSKPIYKQIVHYIHTEIVTGTYEAGDKLLSVRELATKLEVNPTTIQRAYAELEEAGIIFTVRGTGKYLTEDKRRIEQLENHIAKQLTENFISEMSKLGINKEKIIAWVKKVEEVEVNASGK", "values": [
      {"measurement": "soluble on expression in E. coli", "result": "not soluble"}
    ]},
    {"sequence": "SNVRATYTVIFKNASGLPNGYDNWGWGCTLSYYGGAMIINPQEGKYGAVSLKRNSGSFRGGSLRFDMKNEGKVKILVENSEADEKFEVETISPSDEYVTYILDVDFDLPFDRIAFQDAPGNGDRIWIKNLVHSTGSADDFVDPINLEHHHHHH", "values": [
      {"measurement": "soluble on expression in E. coli", "result": "soluble"}
    ]},
    {"sequence": "MKSASDPFDLKRFVYAQAPVYRSVVEELRAGRKRGHWMWFVFPQLRGLGSSPLAVRYGISSLEEAQAYLQHDLLGPRLHECTGLVNQVQGRSIEEIFGPPDDLKLCSSMTLFARATDANQDFVALLAKYYGGGEDRRTVALLAVT", "values": [
      {"measurement": "soluble on expression in E. coli", "result": "soluble"}
    ]},
    {"sequence": "MATKEKHVRKPDWVKIKLNTNENYIGLKKLMRENRLHTVCEEAKCPNIHECWAVRRTATFMILGSVCTRACRFCAVKTGLPTELDWQEPERVAESVRIMNLKHVVVTAVARDDLKDGGAAVFAETVRAIRRKNPFTTIEVLPSDMGGVYENLKILMDARPDILNHNIETVRRLTPRVRARATYERSLEFLRRAKELQPDIPTKSSIMVGLGETKEEIIEAMDDLRANHVDILTIGQYLQPTKKHLKVVKYYHPDEFQELKEIALSKGFSHCEAGPLVRSSYHADEQVSEAAKARQLKA", "values": [
      {"measurement": "soluble on expression in E. coli", "result": "not soluble"}
    ]},
    {"sequence": "MGSSHHHHHHSSGLVPRGSHMASAVVQEVSAEAQAPAVVKNPPKLALKIDRADVNQLPRNFRMGSDKYVGVTKTGIMPTRKGMDTMNVSASSCFSEKELEAILKKVPVKPSQFYDVDLRGESHGYLNGTAVSWFANHDWGNDGRTEDIIIPLEKEQLASLKGSTVKSIYRFDDKKNVILSPVYVNYNKVRTEEEMVKQHGANYFRLTLQDHFRPDDPDVDKFLEFYKSLPKDAWLHYHCYAGMGRTTIFMVMHDILKNAKDVSFDDIIQRQKLIGIVDLSEIPDKKKNYGRKAYIERYQFVQHFYDYVKENPDLKTPYSVWAKKNKVNSWEPDYNGYIWRLDTKDRNQLPRNFRTMNSAFRTDVNVKKTGKGFTPTPTRKGLDTLYMSGSAEFSNGELQAMLPVLKQQAKGPIYIMDLRQETHGVFNGNAVSWYGLRDWGNLGKNKAEVLKDENSRLNAARGKSLIVAELDKDKMPIDPKPVKIESVMTEQQLVEKNGLHYYRIAATDHIWPSAANIDEFINFTRTMPANAWLHFHCQAGAGRTTAYMAMYDMMKNPDVSLGDILSRQYLLGGNYVAYEIAKPKPDQWKADYYHQKAHMIEKFYQYVQENHADGFKTSWSQWLAAHQDV", "values": [
      {"measurement": "soluble on expression in E. coli", "result": "soluble"}
    ]},
    {"sequence": "MGSDKIHHHHHHMKLITVSGPPSSGKTSLIIKTVESLKAQNIKVGIVKFDCLYTDDDILYEKAGILVKKGLSGSVCPDHFFASNIEEVVQWGKTNNLDLLITESAGLCNRCSPYLKDIKAVCVIDNLSGINTPKKIGPMLKLADIVVITKGDIVSQAEREVFASRVQTVNPKAAIIHINGLTGQGTYEFGSLIMDKNEEIDTVIERKLRFPLPSAVCSYCLGETRIGNNYQLGNIRKINFEEQ", "values": [
      {"measurement": "soluble on expression in E. coli", "result": "not soluble"}
    ]},
    {"sequence": "YASQSAGKEYYKHIEKIIVDNDVYEKSLEGERTFDINYQGIKINADLIKDGKHELTIVNKKDGDILITFIKKG", "values": [
      {"measurement": "soluble on expression in E. coli", "result": "not soluble"}
    ]},
    {"sequence": "MAHHHHHHMGTLEAQTQGPGSMVNWNALRSKAIEVSRHAYAPYSGFPVGAAALVDDGRTVTGCNVENVSYGLGLCAECAVVCALHSGGGGRLVALSCVGPDGGVLMPCGRCRQVLLEHGGPELLIDHAHGPRPLRELLPDAFGPDDLGRR", "values": [
      {"measurement": "soluble on expression in E. coli", "result": "soluble"}
    ]},
    {"sequence": "AHHHHHHGSTQKKLIEYTNPSTSRRKITRIPIDSPDYPPLLKQIKDPPKIIYAIGNVRLLNKPAVAIVGTRQPSERGEYYAEKVAEFYAKQGFVIVSGLALGIDSIVIKTALKTGAHVIGVLPSPVNDIVPKSNEKLAEKIIRSGGLLISELPEGTKPKKYHFVRRNRIISGISFAVVVIESELKDGTMHTVKFAKQQRRIILVTNLPASGNAKLKNEGFPILDF", "values": [
      {"measurement": "soluble on expression in E. coli", "result": "soluble"}
    ]},
    {"sequence": "QQCGQTAPLINERLSYMKDVAGYKAENHLPIEDRIQEEKVINSAMAQAESLGLNGESIKPLMVAQINAAKAIQYRYRADWLSQPEPGWQPKPLDDVRANIGELSTKILEQIAEELKTCKPAEMGDKAHFINTIRQHNLTSADVEAIFSTFNQVKLK", "values": [
      {"measurement": "soluble on expression in E. coli", "result": "soluble"}
    ]},
    {"sequence": "MGSDKIHHHHHHMGKIISKFVCHECGYETPKWLGKCPGCSAWNSLLEESISNKPLRRTAERVAAIPLNQLSAEDSPRFSSGLSEFDRVLGGGIVPGSLILLGGDPGIGKSTLLLQVAGLIAAAGKRILYLSGEESLQQIRLRASRLGINNDTIFLLNEQDIDLLHEYINDLDPDLIIIDSIQTVYSSKLSSIPGSVSQLRESTAAVMQIAKKMDKAVFLVGHVTKDGSLAGPKVLEHIVDVVVYFEGEKNFSFRLLRAAKNRFGATDEIALLEMSGQGLVEVPDPSYVFLSPGRDISSGTAIVASMEGSRPLLIEIQALVSSLGAGYPRRMVSGIDQNRLSLIIAVLEKRRGYTLSACDVYLKVSGGVFLKDPSVDLGIAAAVLSSYLEKPLAMDTVFIGEISLSGQIRPVSFLDLRLREIDRMGYKRVIVPTSPGRLAKSSHNMEILEVKSLDHFIDIVLEG", "values": [
      {"measurement": "soluble on expression in E. coli", "result": "not soluble"}
    ]},
    {"sequence": "MIKLKNVTKTYKMGEEIIYALKNVNLNIKEGEFVSIMGPSGSGKSTMLNIIGCLDKPTEGEVYIDNIKTNDLDDDELTKIRRDKIGFVFQQFNLIPLLTALENVELPLIFKYRGAMSGEERRKRALECLKMAELEERFANHKPNQLSGGQQQRVAIARALANNPPIILADEPTGALDSKTGEKIMQLLKKLNEEDGKTVVVVTHDINVARFGERIIYLKDGEVEREEKLRGFDDR", "values": [
      {"measurement": "soluble on expression in E. coli", "result": "soluble"}
    ]},
    {"sequence": "MESAKSIIGGHQNVILMRHGDRLDNFEPLWTSTAARPWDPPLAQDGKDRAFRTGQRIRSQLGVPIHRVFVSPFLRCIQTASEVVAALSAVDFDPIAMSSKDVLSIDNTKIKVAIEFGLSEIPHPIFIKSEVAPKDGKFDFKISDLEAMFPEGTVDSNVDMVYKEVPEWGESAQAFEDRYYKTVKILAEKYPSENLLLVTHWGAVSVAFYNYFKDATKYVVDYCGSVEMRRQILNGDGFGKFEVVTSHGVSYKYTKIPVHDHVVVSRQSPL", "values": [
      {"measurement": "soluble on expression in E. coli", "result": "soluble"}
    ]},
    {"sequence": "YIDILNQARDYVYIMTPYLILDSEMEHALQFAAERGVDVKIIMPGIPDKKVPFALAKRYFPALLDAGVKIYEFTPGFVHAKVFIADDIKAVVGTINLDYRSLYHHFECATYMYQTDCLVDIKADFKETLKQSRRVTRSTLQKEKISTKLIGLVVKLVAPLL", "values": [
      {"measurement": "soluble on expression in E. coli", "result": "not soluble"}
    ]},
    {"sequence": "GPGSMPSSSLSQSSAPRQPPLGDSGECRCSTLPPKPPLAGVEEPQPSDAEDPIPFLATMSMNQVGFLHARKCTRRDLLGTSLGNCPASENVLANGASHGIEATPLPGSRSATSTSFTSPTSAPLAPMAESECDVSYLEQMLMQIMDAAKAFANTSQAPSCDTAPQSADTLPACEYLLRKCFHFDTGAFKPRQQEVCLSVLAGVNTLAVCPTGWGKSLCFQFPMLVHRLLFQCRYTRWCRQAATAPAAAQQSSETAVKEGQTGASRFAGALPSAGLPAHLFSRFCVVVSPLLALMEDQAEKINAVDHLSAFVLSAKVGADREARVLAQLESPVCPLDILFVSPEN", "values": [
      {"measurement": "soluble on expression in E. coli", "result": "not soluble"}
    ]},
    {"sequence": "MIRKWDTKDTAPLLALWLDSTIHAHPFISESYWRDSVAVVRDVYLPAASTWVWEQDGELKGFVSVLDSRFVGALFVAPGATRQGIGRALLDEVKQHYAWLSLEVYQKNESAVSFYHAQGFRIEDCAWQDDTQHPTWIMRWPADQMP", "values": [
      {"measurement": "soluble on expression in E. coli", "result": "not soluble"}
    ]},
    {"sequence": "MATSRMVQARVPEEIQNVASQVIQASGLTVSDVVRVLMTRIAQDKAIPSVLFQPNAETIAAFAEVDEGNLKKFHSVDELFDDLYADD", "values": [
      {"measurement": "soluble on expression in E. coli", "result": "not soluble"}
    ]}
  ]
}
